From the supplement of paper PMC6755084

B1: F1*; a variant is named by its letters at N, in order (parent)
chain: GAGACCGCAACTGAAAAGTTGTTATCNNNNNNNNAANNNNNTTNGNNGGGTTGAAGTTCTGCACGTAGAAGCAAAAGGC

Variants of: B1
Assay: fraction ligated after 30 min (ligated reads / total reads); higher = more ligase activity
Details: with F1*sub RNA substrate (template-directed ligation), 42 °C
Experimental: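 Chip-synthesised pool of F1* ligase ribozyme variants (all single and double substitutions, single, double and triple deletions in the catalytic core and GAA bulge, plus designed variants) was transcribed with T7 and reacted as a pool with excess substrate F1*sub for 30 min at 42 C in 50 mM EPPS pH 8.5, 25 mM MgCl2. Ligated and unligated bands were separated by PAGE, barcoded by RT and deep sequenced; fraction ligated = ligated reads / total reads per variant, relative activity = FL / FL of wild type (0.826). Sequences are the DNA template of the ribozyme.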

Variant	fraction ligated
GAGACCGCAACTGAAAAGTTGTTATCACTTGCGTAAGAACTTTGGATGGGTTGAAGTTCTGCACGTAGAAGCAAAAGGC [ACTTGCGTGAACTGAT]	0.85
GAGACCGCAACTGAAAAGTTGTTATCACTTGTCGAAGCACTTTGGATGGGTTGAAGTTCTGCACGTAGAAGCAAAAGGC [ACTTGTCGGCACTGAT]	0.78
GAGACCGCAACTGAAAAGTTGTTATCACTTTCGTAAGACCTTTGGATGGGTTGAAGTTCTGCACGTAGAAGCAAAAGGC [ACTTTCGTGACCTGAT]	0.773
GAGACCGCAACTGAAAAGTTGTTATCACTTGTCGAAGAACTTTGGATGGGTTGAAGTTCTGCACGTAGAAGCAAAAGGC [ACTTGTCGGAACTGAT]	0.813
GAGACCGCAACTGAAAAGTTGTTATCACTGTCGTAAGACACTTTGGAGGGTTGAAGTTCTGCACGTAGAAGCAAAAGGC [ACTGTCGTGACACTGA]	0.13
GAGACCGCAACTGAAAAGTTGTTATCACTGTCGTAAGACACTTTGGTGGGTTGAAGTTCTGCACGTAGAAGCAAAAGGC [ACTGTCGTGACACTGT]	0.694
GAGACCGCAACTGAAAAGTTGTTATCACTTGTCTAAGACACTTTGGAGGGTTGAAGTTCTGCACGTAGAAGCAAAAGGC [ACTTGTCTGACACTGA]	0.169
GAGACCGCAACTGAAAAGTTGTTATCACTTGTCTAAGACACTTTGGTGGGTTGAAGTTCTGCACGTAGAAGCAAAAGGC [ACTTGTCTGACACTGT]	0.285
GAGACCGCAACTGAAAAGTTGTTATCACTTGTCTAAGACACTTGGATGGGTTGAAGTTCTGCACGTAGAAGCAAAAGGC [ACTTGTCTGACACGAT]	0.786
GAGACCGCAACTGAAAAGTTGTTATCACTTGCGTAAGACACTTTGATGGGTTGAAGTTCTGCACGTAGAAGCAAAAGGC [ACTTGCGTGACACTAT]	0.802
GAGACCGCAACTGAAAAGTTGTTATCACTTGCGTAAACACTTTGGATGGGTTGAAGTTCTGCACGTAGAAGCAAAAGGC [ACTTGCGTACACTGAT]	0.837
GAGACCGCAACTGAAAAGTTGTTATCACTGTCGTAAACACTTTGGATGGGTTGAAGTTCTGCACGTAGAAGCAAAAGGC [ACTGTCGTACACTGAT]	0.84
GAGACCGCAACTGAAAAGTTGTTATCACTTGTGTAAGAACTTTGGATGGGTTGAAGTTCTGCACGTAGAAGCAAAAGGC [ACTTGTGTGAACTGAT]	0.867
GAGACCGCAACTGAAAAGTTGTTATCACTTGTGTAAGACACTTTGATGGGTTGAAGTTCTGCACGTAGAAGCAAAAGGC [ACTTGTGTGACACTAT]	0.797
GAGACCGCAACTGAAAAGTTGTTATCACTTGTCTAAGACATTTGGATGGGTTGAAGTTCTGCACGTAGAAGCAAAAGGC [ACTTGTCTGACATGAT]	0.834
GAGACCGCAACTGAAAAGTTGTTATCACTGTCGTAAGACACTTTGATGGGTTGAAGTTCTGCACGTAGAAGCAAAAGGC [ACTGTCGTGACACTAT]	0.79
GAGACCGCAACTGAAAAGTTGTTATCACTTGTGTAAGACATTTGGATGGGTTGAAGTTCTGCACGTAGAAGCAAAAGGC [ACTTGTGTGACATGAT]	0.841

Variant	fraction ligated
GAGACCGCAACTGAAAAGTTGTTATCACTTGTCTAAGCACTTTGGATGGGTTGAAGTTCTGCACGTAGAAGCAAAAGGC [ACTTGTCTGCACTGAT]	0.797
GAGACCGCAACTGAAAAGTTGTTATCACTTGCGTAAGACACTTTGGAGGGTTGAAGTTCTGCACGTAGAAGCAAAAGGC [ACTTGCGTGACACTGA]	0.128
GAGACCGCAACTGAAAAGTTGTTATCACTTGCGTAAGACACTTTGGTGGGTTGAAGTTCTGCACGTAGAAGCAAAAGGC [ACTTGCGTGACACTGT]	0.143
GAGACCGCAACTGAAAAGTTGTTATCACTTGTGTAAGACACTTGGATGGGTTGAAGTTCTGCACGTAGAAGCAAAAGGC [ACTTGTGTGACACGAT]	0.807
GAGACCGCAACTGAAAAGTTGTTATCACTTTCGTAAGCACTTTGGATGGGTTGAAGTTCTGCACGTAGAAGCAAAAGGC [ACTTTCGTGCACTGAT]	0.8
GAGACCGCAACTGAAAAGTTGTTATCACTTGTCTAAACACTTTGGATGGGTTGAAGTTCTGCACGTAGAAGCAAAAGGC [ACTTGTCTACACTGAT]	0.817
GAGACCGCAACTGAAAAGTTGTTATCACTTGCGTAAGACCTTTGGATGGGTTGAAGTTCTGCACGTAGAAGCAAAAGGC [ACTTGCGTGACCTGAT]	0.815
GAGACCGCAACTGAAAAGTTGTTATCACTTGCGTAAGACACTTGGATGGGTTGAAGTTCTGCACGTAGAAGCAAAAGGC [ACTTGCGTGACACGAT]	0.801
GAGACCGCAACTGAAAAGTTGTTATCCTTGTCGTAAGAACTTTGGATGGGTTGAAGTTCTGCACGTAGAAGCAAAAGGC [CTTGTCGTGAACTGAT]	0.809
GAGACCGCAACTGAAAAGTTGTTATCACTTGTCGAAACACTTTGGATGGGTTGAAGTTCTGCACGTAGAAGCAAAAGGC [ACTTGTCGACACTGAT]	0.822
GAGACCGCAACTGAAAAGTTGTTATCACTTGTCTAAGACCTTTGGATGGGTTGAAGTTCTGCACGTAGAAGCAAAAGGC [ACTTGTCTGACCTGAT]	0.783
GAGACCGCAACTGAAAAGTTGTTATCACTTGTCGAAGACACTTTGATGGGTTGAAGTTCTGCACGTAGAAGCAAAAGGC [ACTTGTCGGACACTAT]	0.769
GAGACCGCAACTGAAAAGTTGTTATCACTTTCGTAAGACATTTGGATGGGTTGAAGTTCTGCACGTAGAAGCAAAAGGC [ACTTTCGTGACATGAT]	0.832
GAGACCGCAACTGAAAAGTTGTTATCACTTTCGTAAGAACTTTGGATGGGTTGAAGTTCTGCACGTAGAAGCAAAAGGC [ACTTTCGTGAACTGAT]	0.873
GAGACCGCAACTGAAAAGTTGTTATCACTTTCGTAAGACACTTTGATGGGTTGAAGTTCTGCACGTAGAAGCAAAAGGC [ACTTTCGTGACACTAT]	0.793
GAGACCGCAACTGAAAAGTTGTTATCCTTGTCGTAAGACCTTTGGATGGGTTGAAGTTCTGCACGTAGAAGCAAAAGGC [CTTGTCGTGACCTGAT]	0.786
GAGACCGCAACTGAAAAGTTGTTATCACTTTCGTAAGACACTTTGGTGGGTTGAAGTTCTGCACGTAGAAGCAAAAGGC [ACTTTCGTGACACTGT]	0.0695
